Reference: article PMC6804483 (Acta Pharmaceutica Sinica. B, 2019)
[ ]: non-standard residue; d: D form. The star is where a group is joined. 5FAM = O=C1OC2(c3ccc(O)cc3Oc3cc(O)ccc32)c2ccc(C(=O)*)cc21; pT = C[C@@H](OP(=O)(O)O)[C@H](N)C(=O)O

What was measured:
[1] = biological target: Polo-like kinase 1 (PLK1) Polo-box domain (Homo sapiens, UniProt P53350); experiment: microscale thermophoresis with labeled PLK1 PBD; format: binding
[2] = biological target: T1, PLK2 Polo-box domain (Homo sapiens, UniProt Q9NYY3); experiment: fluorescence polarization competition with fluorescein-labeled phosphopeptide; format: binding
T1 sequence (Q9NYY3 355-685): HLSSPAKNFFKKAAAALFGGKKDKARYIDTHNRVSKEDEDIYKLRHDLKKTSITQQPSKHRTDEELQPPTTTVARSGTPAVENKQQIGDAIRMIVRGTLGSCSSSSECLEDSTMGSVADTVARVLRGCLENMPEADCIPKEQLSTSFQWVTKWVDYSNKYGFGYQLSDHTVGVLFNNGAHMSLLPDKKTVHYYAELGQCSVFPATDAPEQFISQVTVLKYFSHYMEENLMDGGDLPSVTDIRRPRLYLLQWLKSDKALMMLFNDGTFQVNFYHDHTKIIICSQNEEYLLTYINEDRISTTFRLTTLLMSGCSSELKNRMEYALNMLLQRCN

[3] = biological target: T2, Polo-box domain (PBD) of human PLK3 (aa 335–646) (human, UniProt Q9H4B4 335-646); experiment: fluorescence polarisation
T2 sequence (looked up): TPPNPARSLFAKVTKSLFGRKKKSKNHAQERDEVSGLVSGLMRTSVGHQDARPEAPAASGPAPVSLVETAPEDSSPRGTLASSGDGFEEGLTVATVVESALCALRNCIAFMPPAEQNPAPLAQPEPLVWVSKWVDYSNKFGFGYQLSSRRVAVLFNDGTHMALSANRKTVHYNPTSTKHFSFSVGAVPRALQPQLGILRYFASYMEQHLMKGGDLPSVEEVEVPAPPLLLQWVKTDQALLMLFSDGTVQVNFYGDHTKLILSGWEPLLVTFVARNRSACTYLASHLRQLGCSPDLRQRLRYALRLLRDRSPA

[4] = biological target: T3, Polo-box domain (PBD) of human PLK2 (aa 355–685) (human, UniProt Q9NYY3 355-685); experiment: fluorescence polarisation
T3 sequence (looked up): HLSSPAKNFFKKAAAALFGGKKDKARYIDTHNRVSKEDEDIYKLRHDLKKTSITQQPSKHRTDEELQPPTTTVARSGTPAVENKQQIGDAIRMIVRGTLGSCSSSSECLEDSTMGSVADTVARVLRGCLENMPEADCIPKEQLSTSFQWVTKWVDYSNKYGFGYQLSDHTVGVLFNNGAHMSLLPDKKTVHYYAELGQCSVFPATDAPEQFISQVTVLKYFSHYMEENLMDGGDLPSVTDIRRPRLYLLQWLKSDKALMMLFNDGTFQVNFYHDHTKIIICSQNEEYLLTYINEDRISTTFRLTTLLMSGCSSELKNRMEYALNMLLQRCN

[5] = biological target: Polo-box domain (PBD) of human PLK1 (aa 326–603) (human, UniProt P53350 326-603); experiment: fluorescence polarisation
Chain of Polo-box domain (PBD) of human PLK1 (aa 326–603) (P53350 326-603): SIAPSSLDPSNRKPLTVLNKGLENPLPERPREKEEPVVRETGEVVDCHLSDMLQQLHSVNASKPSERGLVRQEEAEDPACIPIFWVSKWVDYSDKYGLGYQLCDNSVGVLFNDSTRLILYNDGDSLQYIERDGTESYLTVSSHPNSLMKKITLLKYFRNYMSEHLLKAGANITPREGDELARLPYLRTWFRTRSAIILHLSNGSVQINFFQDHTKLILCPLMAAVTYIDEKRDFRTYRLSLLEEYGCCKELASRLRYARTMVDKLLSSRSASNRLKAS

Chain of Polo-like kinase 1 (PLK1) Polo-box domain (P53350 326-603): as above

## CCOC(=O)c1oc2ccccc2c1CBr [MCC1019, 3-bromomethyl-benzofuran-2-carboxylic acid ethyl ester]
[1]
  Kd: 18.9 µM
[2]
  IC50: 44.1 ± 14.4 µM

B1: 5-carboxyfluorescein-GPLATSpTPKNG-OH (peptide)
peptide: 5FAM-GPLATS[pT]PKNG-OH
SMILES: CC(C)C[C@H](NC(=O)[C@@H]1CCCN1C(=O)CNC(=O)c1ccc2c(c1)C(=O)OC21c2ccc(O)cc2Oc2cc(O)ccc21)C(=O)N[C@@H](C)C(=O)N[C@H](C(=O)N[C@@H](CO)C(=O)N[C@H](C(=O)N1CCC[C@H]1C(=O)N[C@@H](CCCCN)C(=O)N[C@@H](CC(N)=O)C(=O)NCC(=O)O)[C@@H](C)OP(=O)(O)O)[C@@H](C)O
[3]
  binding result: binds

B2: 5-carboxyfluorescein-GPMQTSpTPKNG-OH (peptide)
peptide: 5FAM-GPMQTS[pT]PKNG-OH
SMILES: CSCC[C@H](NC(=O)[C@@H]1CCCN1C(=O)CNC(=O)c1ccc2c(c1)C(=O)OC21c2ccc(O)cc2Oc2cc(O)ccc21)C(=O)N[C@@H](CCC(N)=O)C(=O)N[C@H](C(=O)N[C@@H](CO)C(=O)N[C@H](C(=O)N1CCC[C@H]1C(=O)N[C@@H](CCCCN)C(=O)N[C@@H](CC(N)=O)C(=O)NCC(=O)O)[C@@H](C)OP(=O)(O)O)[C@@H](C)O
[4]
  binding result: binds

B3: 5-carboxyfluorescein-GPMQSpTPLNG-OH (peptide)
peptide: 5FAM-GPMQS[pT]PLNG-OH
SMILES: CSCC[C@H](NC(=O)[C@@H]1CCCN1C(=O)CNC(=O)c1ccc2c(c1)C(=O)OC21c2ccc(O)cc2Oc2cc(O)ccc21)C(=O)N[C@@H](CCC(N)=O)C(=O)N[C@@H](CO)C(=O)N[C@H](C(=O)N1CCC[C@H]1C(=O)N[C@@H](CC(C)C)C(=O)N[C@@H](CC(N)=O)C(=O)NCC(=O)O)[C@@H](C)OP(=O)(O)O
[5]
  binding result: binds
